Measured values as given in patent US20200308281A1 (KITE PHARMA, published 2020).

Molecular target: T1, alpha chain of the constant region of the murine T cell receptor (TCR) (murine, UniProt P01849 1-136)
T1 construct: Endogenous protein in mouse spleen tissue; The variable parts and the beta chains are those of the tissue's T cells and are not defined; also called mouse spleen TCR
T1 TCR alpha (looked up): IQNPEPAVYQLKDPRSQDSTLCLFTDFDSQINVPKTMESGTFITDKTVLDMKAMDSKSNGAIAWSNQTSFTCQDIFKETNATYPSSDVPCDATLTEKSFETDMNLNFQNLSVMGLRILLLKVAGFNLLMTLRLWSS
Experiment: immunohistochemistry on FFPE section of mouse spleen
Protocol: The candidate antibodies were screened for their utility in immunohistochemistry. Specimens were sectioned at 4 micron thickness, mounted onto positive-charged glass slides, dried, baked, deparaffinized, and rehydrated. Following rehydration, tissue sections were incubated in Envision Peroxidase (Dako) for 5 minutes to quench endogenous peroxidase. Sections underwent heat-induced epitope retrieval using high-pH buffer for 40 minutes in a water bath set to 95° C. followed by a rinse in neutral buffer. Slides were incubated with antibody or negative reagent control diluted in diluent for 30 minutes. Slides were then rinsed twice in buffer for 5 minutes each followed by detection using the Envision+Rabbit HRP Detection Kit (Dako) for 30 minutes. Slides were rinsed twice with buffer for 5 minutes each followed by incubation with DAB (Dako) for 5 minutes. Slides were rinsed with water, counterstained with hematoxylin, blued in ammonia water, dehydrated through graded alcohols, cleared in xylene, and coverslipped. As shown in FIGS. 5A-E, E7 TCR-transduced, Peripheral blood mononuclear cells (PBMCs) transduced with the MAGE A3/A6 TCR, and FFPE section of mouse spleen stain with the exemplary mAb clone 39 (KIP-8) antibody described herein. […] Normal mouse spleen sections stain with KIP-8 further indicating its specificity for the murine alpha constant sequence.

B1: KIP-8 antibody (mAb clone 39; Clone 39-4) (antibody, V domains shown)
VH: QEQLVESGGGLVQPEGSLTLTCTASGFDLGNNWIHWVRHAPGKGLEWIACVSGSSGNIYYATWAKGRFTMSKASSTTVTLRMTSLTAADTATYFCARGWNLWGPGTLVTVSS
VL: AQVLTQTPASVSAAVGGTVTINCQASQSVYSSNLLTWYQKKPGQPPKLLIYEASKLPSGIPSRFSGSGSGTQFTLTISDVQCADAATYYCLGIYDCVLADCQAFGGGTEVVVKG
notes: Rabbit monoclonal antibody; also called clone 39 (KIP-8); Clone 39-4 vh1
Q: Does B1 bind?
A: Result: binds
